Consider five sequences from the supplement of paper PMC5998384.

In data set [1] the test system is HeLa Kyoto. Nature of the data set: melting temperature (median over replicates), in situ; higher = more thermally stable.
Data set [2] has as its system HeLa Kyoto. Nature of the data set: solubility change mitosis vs G1/S (difference of NP-40 vs SDS log2 ratios) (log2 ratio difference); higher = more soluble in mitosis.
The subject of data set [3] is HeLa Kyoto. Nature of the data set: solubility in G1/S (NP-40 vs SDS abundance) (log2 ratio); higher = more soluble. Conditions: cell cycle stage: G1/S.
For data set [4], the system named is HeLa Kyoto. Nature of the data set: thermal stability score vs G1/S (z-score of summed log2 fold changes over temperatures); higher = more thermally stable than in G1/S.
Where [5] appears, read: cell cycle stage: early G1 (4.5 h after nocodazole release).
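Throughout, for melting temperature (median over replicates), in situ: HeLa Kyoto cells synchronized by double thymidine or nocodazole block, proteins quantified by TMT10plex mass spectrometry, three independent biological replicates.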
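Throughout, for solubility change mitosis vs G1/S (difference of NP-40 vs SDS log2 ratios): synchronized HeLa Kyoto cells (double thymidine block for G1/S, nocodazole release for mitosis), protein amounts in NP-40 versus SDS lysates quantified by mass spectrometry, three biological replicates.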
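Throughout, for solubility in G1/S (NP-40 vs SDS abundance): HeLa Kyoto cells arrested at G1/S by double thymidine block, proteins quantified by TMT10plex mass spectrometry in mild NP-40 versus SDS extracts, three biological replicates.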
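Throughout, for thermal stability score vs G1/S (z-score of summed log2 fold changes over temperatures): synchronized HeLa Kyoto cells, proteins quantified by TMT10plex mass spectrometry, three biological replicates, mitosis taken 0.5 h after nocodazole release, G1/S directly after double thymidine block.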

As for “MSRYGRYGGETKVYVGNLGTGAGKGELERAFSYYGPLRTVWIARNPPGFAFVEFEDPRDAEDAVRGLDGKVICGSRVRVELSTGMPRRSRFDRPPARRPFDPNDRCYECGEKGHYAYDCHRYSRRRRSRSRSRSHSRSRGRRYSRSRSRSRGRRSRSASPRRSRSISLRRSRSASLRRSRSGSIKGSRYFQSPSRSRSRSRSISRPRSSRSKSRSPSPKRSRSPSGSPRRSASPERMD [SRSF7]”, the melting temperature in data set [1] (cell cycle stage: G1/S) was found to be 50.4 °C; in data set [1] (cell cycle stage: mitosis), 50.5 °C. Moreover, the “solubility change mitosis (log2)” value in data set [2] turned out to be 0.665. For the same sequence, the “solubility in G1/S (log2)” value in data set [3] is -1.02. Besides, the thermal stability score in data set [4] (setting [5]) is -4.9; in data set [4] (cell cycle stage: mitosis), -9.15.

Take “MSSAPRRPAKGADSFCTPEPESLGPGTPGFPEQEEDELHRTLGVERFEEILQEAGSRGGEEPGRSYGEEDFEYHRQSSHHIHHPLSTHLPPDARRRKTPQGPGRKPRRRPGASPTGETPTIEEGEEDEDEASEAEGARALTQPSPVSTPSSVQFFLQEDDSADRKAERTSPSSPAPLPHQEATPRASKGAQAGTQVEEAEAEAVAVASGTAGGDDGGASGRPLPKAQPGHRSYNLQERRRIGSMTGAEQALLPRVPTDEIEAQTLATADLDLMKSHRFEDVPGVRRHLVRKNAKGSTQSGREGREPGPTPRARPRAPHKPHEVFVELNELLLDKNQEPQWRETARWIKFEEDVEEETERWGKPHVASLSFRSLLELRRTLAHGAVLLDLDQQTLPGVAHQVVEQMVISDQIKAEDRANVLRALLLKHSHPSDEKDFSFPRNISAGSLGSLLGHHHGQGAESDPHVTEPLMGGVPETRLEVERERELPPPAPPAGITRSKSKHELKLLEKIPENAEATVVLVGCVEFLSRPTMAFVRLREAVELDAVLEVPVPVRFLFLLLGPSSANMDYHEIGRSISTLMSDKQFHEAAYLADEREDLLTAINAFLDCSVVLPPSEVQGEELLRSVAHFQRQMLKKREEQGRLLPTGAGLEPKSAQDKALLQMVEAAGAAEDDPLRRTGRPFGGLIRDVRRRYPHYLSDFRDALDPQCLAAVIFIYFAALSPAITFGGLLGEKTQDLIGVSELIMSTALQGVVFCLLGAQPLLVIGFSGPLLVFEEAFFSFCSSNHLEYLVGRVWIGFWLVFLALLMVALEGSFLVRFVSRFTQEIFAFLISLIFIYETFYKLVKIFQEHPLHGCSASNSSEVDGGENMTWAGARPTLGPGNRSLAGQSGQGKPRGQPNTALLSLVLMAGTFFIAFFLRKFKNSRFFPGRIRRVIGDFGVPIAILIMVLVDYSIEDTYTQKLSVPSGFSVTAPEKRGWVINPLGEKSPFPVWMMVASLLPAILVFILIFMETQITTLIISKKERMLQKGSGFHLDLLLIVAMGGICALFGLPWLAAATVRSVTHANALTVMSKAVAPGDKPKIQEVKEQRVTGLLVALLVGLSIVIGDLLRQIPLAVLFGIFLYMGVTSLNGIQFYERLHLLLMPPKHHPDVTYVKKVRTLRMHLFTALQLLCLALLWAVMSTAASLAFPFILILTVPLRMVVLTRIFTDREMKCLDANEAEPVFDEREGVDEYNEMPMPV [SLC4A2]”: the melting temperature in data set [1] (cell cycle stage: G1/S) came to 53.9 °C; in data set [1] (cell cycle stage: mitosis), 54.1 °C. Moreover, the “solubility change mitosis (log2)” value in data set [2] was 0.0677. For the same sequence, in data set [3], the “solubility in G1/S (log2)” value is 0.054. The thermal stability score in data set [4] (setting [5]) was 0.464; in data set [4] (cell cycle stage: mitosis) it was -0.912.

Regarding “MSSASGLRRGHPAGGEENMTETDAFYKREMFDPAEKYKMDHRRRGIALIFNHERFFWHLTLPERRGTCADRDNLTRRFSDLGFEVKCFNDLKAEELLLKIHEVSTVSHADADCFVCVFLSHGEGNHIYAYDAKIEIQTLTGLFKGDKCHSLVGKPKIFIIQACRGNQHDVPVIPLDVVDNQTEKLDTNITEVDAASVYTLPAGADFLMCYSVAEGYYSHRETVNGSWYIQDLCEMLGKYGSSLEFTELLTLVNRKVSQRRVDFCKDPSAIGKKQVPCFASMLTKKLHFFPKSN [CASP6]”, the melting temperature amounted to 54.4 °C in data set [1] (cell cycle stage: G1/S) and 56.6 °C in data set [1] (cell cycle stage: mitosis). In addition, the “solubility change mitosis (log2)” value in data set [2] is -0.176. Moreover, in data set [3], the “solubility in G1/S (log2)” value was -0.374. Also, the figures for the thermal stability score in data set [4] (setting [5]) and in data set [4] (cell cycle stage: mitosis) were -0.607 and -1.03, respectively.

Consider “MSSASVTAFEKEHLWMYLQALGFEPGPATIACGKIVSHTHLGVNMFDKLNRDAFHIISYFLFQVLDQSLTKEVFKFCWPPFDQKSDTEFRKHCCEWIKRISGECGSSFPQVVGSLFLSPGGPKFIHLMYHFARFVAMKYIKSNSKNSSHHFVETFNIKPQDLHKCIARCHFARSRFLQILQRQDCVTQKYQENAQLSVKQVRNLRSECIGLENQIKKMEPYDDHSNMEEKIQKVRSLWASVNETLMFLEKEREVVSSVLSLVNQYALDGTNVAINIPRLLLDKIEKQMFQLHIGNVYEAGKLNLLTVIQLLNEVLKVMKYERCQADQARLTVDLHYLEKETKFQKERLSDLKHMRYRIKDDLTTIRHSVVEKQGEWHKKWKEFLGLSPFSLIKGWTPSVDLLPPMSPLSFDPASEEVYAKSILCQYPASLPDAHKQHNQENGCRGDSDTLGALHDLANSPASFLSQSVSSSDRNSVTVLEKDTKMGTPKEKNEAISKKIPEFEVENSPLSDVAKNTESSAFGGSLPAKKSDPFQKEQDHLVEEVARAVLSDSPQLSEGKEIKLEELIDSLGSNPFLTRNQIPRTPENLITEIRSSWRKAIEMEENRTKEPIQMDAEHREVLPESLPVLHNQREFSMADFLLETTVSDFGQSHLTEEKVISDCECVPQKHVLTSHIDEPPTQNQSDLLNKKVICKQDLECLAFTKLSETSRMETFSPAVGNRIDVMGGSEEEFMKILDHLEVSCNKPSTNKTMLWNSFQISSGISSKSFKDNDFGILHETLPEEVGHLSFNSSSSSEANFKLEPNSPMHGGTLLEDVVGGRQTTPESDFNLQALRSRYEALKKSLSKKREESYLSNSQTPERHKPELSPTPQNVQTDDTLNFLDTCDLHTEHIKPSLRTSIGERKRSLSPLIKFSPVEQRLRTTIACSLGELPNLKEEDILNKSLDAKEPPSDLTR [HAUS6]”, for which the melting temperature in data set [1] (cell cycle stage: G1/S) came out at 48.3 °C; in data set [1] (cell cycle stage: mitosis) it was 49.1 °C. In data set [2], the “solubility change mitosis (log2)” value was -0.0199. In data set [3], the “solubility in G1/S (log2)” value is -0.0247. The figures for the thermal stability score in data set [4] (setting [5]) and in data set [4] (cell cycle stage: mitosis) were 0.745 and 1.14, respectively.

Take “MSSCSRVALVTGANRGIGLAIARELCRQFSGDVVLTARDVARGQAAVQQLQAEGLSPRFHQLDIDDLQSIRALRDFLRKEYGGLNVLVNNAAVAFKSDDPMPFDIKAEMTLKTNFFATRNMCNELLPIMKPHGRVVNISSLQCLRAFENCSEDLQERFHSETLTEGDLVDLMKKFVEDTKNEVHEREGWPNSPYGVSKLGVTVLSRILARRLDEKRKADRILVNACCPGPVKTDMDGKDSIRTVEEGAETPVYLALLPPDATEPQGQLVHDKVVQNW [CBR3]”: the results for the melting temperature in data set [1] (cell cycle stage: G1/S) and in data set [1] (cell cycle stage: mitosis) were 51.4 °C and 52.4 °C, respectively. Further, the “solubility change mitosis (log2)” value in data set [2] is -0.0459. Further, the “solubility in G1/S (log2)” value in data set [3] worked out at 0.562. Besides, the thermal stability score in data set [4] (setting [5]) is -0.991; in data set [4] (cell cycle stage: mitosis), 0.085.
